One experiment relates to Enterococcus. As to the kind of experiment: MIC by Agar Doubling Dilution Method, clinical isolates. Conditions: Enterococcus clinical strains. It is filed as cell-based, Enterococcus faecalis. An outline of the steps:
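MIC = lowest drug level in agar showing no bacterial growth after 18-24 h at 37° C. Spots of 10^5 CFU/ml were multipoint-inoculated onto MH agar with twofold drug dilutions; enterococci used MH plus 5-10% rabbit blood under 5% CO2.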

The test system of experiment [1] is Pseudomonas aeruginosa Standard Strain (ATCC 27853). As to the kind of experiment: Bacteria growth curve (A595 nm cloudiness), Pseudomonas aeruginosa. The format is cell-based. The settings on record: drug 5 μg/ml, 37° C., A595 nm per hour. How it is done: The experimental bacterium was Pseudomonas aeruginosa Standard Strain (ATCC 27853) purchased from the Center for General Microorganism of the Administration (CGMCC). 5 microliter bacteria solution (10^6 CFU/ml level bacterium amount) was added into 10 ml MH culture solution. Seven groups are prepared. 0.3 M NaCl+50 mM boric acid buffer fluid which amount was identical to amount of antibiosis polypeptide liquid in the experimental group was added as control in the first group, 5 μg/ml wild-type colicin Ia was added in the second group, 5 μg/ml PMC-SA1 was added in the third group, and 5 μg/ml PMC-PA was added in the fourth group.
Liquid in the above groups was put into 100 ml conical flask, 200 rpm, grew at 37° C. 100 μl was sampled per hour, and added onto 96-hole Elisa Plate to measure bacteria grown cloudiness by spectrophotometer (A595 nm) color comparison. The bacteria growth curve was drawn up to compare the bacteriostasis efficacy of antibiosis polypeptide.

The subject of experiment [2] is Staphylococcus epidermidis reference culture No. 26069. The experiment in a line: Bacteria growth curve (A595 nm cloudiness), Staphylococcus epidermidis. The format is cell-based. The settings on record: drug 2 μg/ml, 37° C., A595 nm per hour. How it is done: The bacterium is Staphylococcus epidermidis reference culture No. 26069, purchased from China Center of Culture Collection (National Institute for the Control of Pharmaceutical and Biological Products). 3 microliter of bacterium solution (10^6 CFU/ml level bacterium amount) was added into 10 ml culture solution containing 1% peptone, 1% NaCl, 0.5% yeast extract, 0.5% glucose and 0.1% K2HPO4. Totally four groups were prepared. The first group as control was added 0.3M NaCl+50 mM boric acid buffer fluid by the same volume with that of antibiosis polypeptide liquid added in any experimental groups, the second group was added penicillin G sodium by 2 μg/ml, PMC-SA1 and PMC-SE was added in the other experimental groups by 2 μg/ml (0.3 M NaCl+50 mM boric acid buffer fluid was preservative fluid).
The solution of above groups was put into 100 ml conical flask, 200 rpm, grew at 37° C. 100 μl was sampled per hour, and added onto 96-pore ELISA plate to measure bacteria grown cloudiness by spectrophotometer (A595 nm) color comparison. The bacteria growth curve was drawn up to compare the bacteriostasis efficacy of the novel antibiotics.

The test system of experiment [3] is ATCC 25923 penicillin-sensitive Staphylococcus aureus. As to the kind of experiment: Bacteria growth curve (A595 nm cloudiness), penicillin-sensitive Staphylococcus aureus. It is filed as cell-based. Conditions: drug 100 ng/ml, 37° C., A595 nm per hour. How it is done:
The bacterium was United States Reference Culture ATCC 25923 penicillin-sensitive Staphylococcus aureus. 2 microliter of bacteria solution (10^5 CFU/ml) was added into 10 ml culture solution containing 1% tryptone, 1% NaCl, 0.5% yeast extract, 0.5% glucose and 0.1% K2HPO4, totally prepared six groups. The first group as control was added 0.3 M NaCl+50 mM boric acid buffer fluid (i.e. blank preservative fluid for novel antibiotic, wild-type colicin Ia and protein produced by BL-21 engineering bacteria without plasmid, by the same volumes of antibiosis polypeptide liquid in the experimental group, the second group was added penicillin G sodium by 100 ng/ml, the third group was added wild-type colicin Ia by 100 ng/ml, the fourth group was added protein produced by BL-21 engineering bacteria without plasmid by 100 ng/ml, the fifth group was added recombinant protein that C-terminus of colicin Ia is fused other eight peptides by 100 ng/ml, and the sixth group was added the novel antibiotic PMC-SA1 by 100 ng/ml.
The solutions of the six groups were respectively put into 100 ml conical flask, 200 rpm, grew at 37° C. 100 μl was sampled per hour, and added onto 96 hole ELISA Plate and measured bacterium growth cloudiness by spectrophotometer (A595 nm) color comparison. The bacteria-growth curve was drawn up to compare the bacteriostasis efficacy of novel antibiosis.

The test system of experiment [4] is methicillin-resistant Staphylococcus aureus (ATCC BAA-42). The experiment in a line: Transmission electron microscope observation of bactericidal effect. The format is cell-based. How it is done: Transmission Electron Microscope Observations of the Bactericidal Effect of the Novel Antibiotic PMC-SA1 on Methicillin-Resistant Staphylococcus aureus (ATCC BAA-42) (Dyed by 1% Phospho-Wolframic Acid, Magnified by 25,000 Fold)
Culture solution: 1% tryptone, 1% NaCl, 0.5% yeast extract, 0.5% glucose, 0.1% K2HPO4.
Con: control group, the bacterium was added to the above culture solution and proper amount of 0.3 M NaCl+50 mM boric acid buffer solution, 200 rpm, grew at 37° C. for 2 hours, and the bacterial appearance was still regular;
PMC: the bacterium was added to the above culture solution with 10 μg/ml PMC-SA1 for 0.5 hours.

Here are results for one molecule from patent publication US8563503B2, “Antibiotic, its nucleotide sequence, methods of construction and uses thereof” (Protein Design Lab. Ltd., priority 2011, dated 2013).

Entries after “also recorded” stand apart in the source; their conditions may differ.

B1: PMC-SA1: Staphylococcus aureus pheromone AgrD I linked to C-terminus of allosteric colicin Ia′; SEQ ID NO. 13; plasmid pBHC-SA1 (protein)
chain: SDPVRITNPAAESLGYDSDGREIMGVDIYLNPPRVDVFKGTPPAWSSFGNKTIWGGNEWVDDSPTRSDIEKRDKEITAYKNTLSAQQKENENKRTEAGKRLSAAIAAREKDENTLKTLRAGNADAADITRQEFRLLQAELREYGFRTEIAGYDALRLHTESRMLFADADSLRISPREARSLIEQAEKRQKDAQNADKKAADMLAEYERRKGILDTRLSELEKNGGAALAVLDAQQARLLGQQTRNDRAISEARNKLSSVTESLNTARNALTRAEQQLTQQKNTPDGKTIVSPEKFPGRSSTNHSIVVSGDPRFAGTIKITTSAVIDNRANLNYLLSHSGLDYKRNILNDRNPVVTEDVEGDKKIYNAEVAEWDKLRQRLLDARNKITSAESAVNSARNNLSARTNEQKHANDALNALLKEKENIRNQLSGINQKIAEEKRKQDELKATKDAINFTTEFLKSVSEKYGAKAEQLAREMAGQAKGKKIRNVEEALKTYEKYRADINKKINAKDRAAIAAALESVKLSDISSNLNRFSRGLGYAGKFTSLADWITEFGKAVRTENWRPLFVKTETIIAGNAATALVALVFSILTGSALGIIGYGLLMAVTGALIDESLVEKANKFWGIYSTCDFIM
modifications: The peptide of PMC-SA1
notes: Staphylococcus aureus pheromone AgrD I linked to C-terminus of allosteric colicin Ia′; 13; plasmid pBHC-SA1
With B1, in the experiment with Enterococcus, the MIC50 was over 64 µg/mL and the MIC90 was over 64 µg/mL. Moreover, the “growth of Pseudomonas aeruginosa (bacteria growth curve)” value in experiment [1] is given as “can not be effectively restrained”. Also, the “growth of Staphylococcus epidermidis (bacteria growth curve)” value in experiment [2] was “partly restrained”. In addition, in experiment [3], the “growth of penicillin-sensitive Staphylococcus aureus (bacteria-growth curve)” value is “restrained”. In experiment [4] (10 μg/ml PMC-SA1 vs 500 μg/ml oxacillin), the “antibiosis effect relative to oxacillin (by molecular weight and concentration)” value is listed as “about eight thousand”. The “bactericidal effect, bacterial appearance under transmission electron microscope” value in experiment [4] (PMC-SA1 10 μg/ml, 0.5 hours) was “bacterium were ruptured, the contents were leaked out; also recorded: the bacterium ruptured and leaked out its contents; also recorded: could kill methicillin-resistant Staphylococcus aureus effectively”.
